This data set concerns the molecule itself. Kind of data set: crystal structure; PMP·Cv-ATA; holo-Cv-ATA crystals grown by sitting drop in 100 mM HEPES pH 7.5, 350 mM NaCl, 22.5% PEG 4000, 0.1 mM PLP, cryoprotected with 20 mM 1-(S)-phenylethylamine; space group P1; 1.67 Å.

B1: Chromobacterium violaceum (S)-selective amine transaminase, wild type (enzyme)
chain: MQKQRTTSQWRELDAAHHLHPFTDTASLNQAGARVMTRGEGVYLWDSEGNKIIDGMAGLWCVNVGYGRKDFAEAARRQMEELPFYNTFFKTTHPAVVELSSLLAEVTPAGFDRVFYTNSGSESVDTMIRMVRRYWDVQGKPEKKTLIGRWNGYHGSTIGGASLGGMKYMHEQGDLPIPGMAHIEQPWWYKHGKDMTPDEFGVVAARWLEEKILEIGADKVAAFVGEPIQGAGGVIVPPATYWPEIERICRKYDVLLVADEVICGFGRTGEWFGHQHFGFQPDLFTAAKGLSSGYLPIGAVFVGKRVAEGLIAGGDFNHGFTYSGHPVCAAVAHANVAALRDEGIVQRVKDDIGPYMQKRWRETFSRFEHVDDVRGVGMVQAFTLVKNKAKRELFPDFGEIGTLCRDIFFRNNLIMRACGDHIVSAPPLVMTRAEVDEMLAVAERCLEEFEQTLKARGLA
notes: omega-transaminase / (S)-selective amine transaminase of Chromobacterium violaceum, GenBank WP_011135573, in pET28a(+); No tag cleavage is described; also called Cv-ATA; Cv-TA; source: E. coli BL21(DE3), purified (HisTrap FF crude, gel filtration on Superdex 200)
With B1, the binding result is “binds”.

(Values after publication PMC6861513, “Insight into the dimer dissociation process of the Chromobacterium violaceum (S)-selective amine transaminase” (Scientific Reports, 2019).)
